Test results from article PMC10393190 (Genes & Development, 2022).

T1: Mer2 (Saccharomyces cerevisiae, UniProt P21651 1-314)
T1 sequence: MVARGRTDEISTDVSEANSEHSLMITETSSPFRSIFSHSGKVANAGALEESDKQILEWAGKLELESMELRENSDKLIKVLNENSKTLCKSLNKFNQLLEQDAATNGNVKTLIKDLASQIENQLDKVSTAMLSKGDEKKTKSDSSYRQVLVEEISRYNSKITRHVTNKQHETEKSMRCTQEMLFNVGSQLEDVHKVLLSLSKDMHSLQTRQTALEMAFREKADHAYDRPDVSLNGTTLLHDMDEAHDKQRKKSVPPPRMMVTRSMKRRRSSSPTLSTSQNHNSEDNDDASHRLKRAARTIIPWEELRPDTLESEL

B1: Rec114 C-terminal (dimerization) domain, residues 375–428 (domain or fragment)
chain: EASPSEGLTIRVKNVNRNASRKISKRLIKEKLKDEEFMKWVNKVETVLNKMFEK
B2: HisSUMO-IHO1 coiled-coil domain (residues 109–267) (M. musculus) (domain or fragment)
chain: GKSKGLSKQFEEKKRRATDQSDSETLHSFVSHFPEVINKLQTSVEKTEENLSSRSQSILDSVETIAKTFQETARVQHDLMVESVRDKGSMEQAILEIQRTCAARQAEFMEMKSTLKNLEVLVVEQTKNLQQFCDNLSQLIVPGILEELKKFTSVPQVAG
B3: Mer2 N-terminal half of the coiled coil (residues 41–136) (domain or fragment)
chain: KVANAGALEESDKQILEWAGKLELESMELRENSDKLIKVLNENSKTLCKSLNKFNQLLEQDAATNGNVKTLIKDLASQIENQLDKVSTAMLSKGDE
B4: Y (cb095/cb098/cb101) (structured_DNA)
DNA 1: CTAGTATAGAGCCGGCGCGCCATGTCTAGATAGCGTTAGGTCTGCCGAATAGTACTACTCGGATCCCGAGCGAACCACGC
DNA 2: CACGGGTAACCGCGGGTACCGTGAAGATCTACTCGCGTCTCCTAACGCTATCTAGACATGGCGCGCCGGCTCTATACTAG
DNA 3: GCGTGGTTCGCTCGGGATCCGAGTAGTACTATTCGGCAGAAGACGCGAGTAGATCTTCACGGTACCCGCGGTTACCCGTG
B5: HisSUMO-Rec15 coiled-coil domain (residues 1–160) (S. pombe) (domain or fragment)
chain: MSYSVSAAQLWSRKLAMQAEDMQQHQKSQSNQIASCLAEMNTKQEVVNQTIGQLGRSISEVQQQNSQLVLQSLNQINMSMQQVALGIQDYASRINKLEQTMSDMNLKFEALQKEQNSNTKTLADCTSQMTIITKKLDAELKKRYMTTKQTRTVQNQTMPR
B6: Mei4 N-terminal domain, residues 1–43 (domain or fragment)
chain: MSRGKLEDMEQKETSEVDWIICFALIQSRNPTLWKRALSRKKG
B7: HisSUMO-tagged Mer2 coiled-coil domain (residues 41–224) (domain or fragment)
chain: KVANAGALEESDKQILEWAGKLELESMELRENSDKLIKVLNENSKTLCKSLNKFNQLLEQDAATNGNVKTLIKDLASQIENQLDKVSTAMLSKGDEKKTKSDSSYRQVLVEEISRYNSKITRHVTNKQHETEKSMRCTQEMLFNVGSQLEDVHKVLLSLSKDMHSLQTRQTALEMAFREKADHA
B8: HisSUMO-PRD3 coiled-coil domain (residues 120–270) (A. thaliana) (domain or fragment)
chain: IGESKSQISEELEQRFGMMETSLSRFGMMLDSIQSDIMQANRGTKEVFLETERIQQKLTLQDTSLQQLRKEQADSKASLDGGVKFILEEFSKDPNQEKLQKILQMLTTIPEQVETALQKIQREICHTFTREIQVLASLRTPEPRVRVPTAP
B9: Mer2 (residues 161–224) (domain or fragment)
chain: TRHVTNKQHETEKSMRCTQEMLFNVGSQLEDVHKVLLSLSKDMHSLQTRQTALEMAFREKADHA
B10: Mer2 C-terminal half of the coiled coil (residues 138–224) (domain or fragment)
chain: KTKSDSSYRQVLVEEISRYNSKITRHVTNKQHETEKSMRCTQEMLFNVGSQLEDVHKVLLSLSKDMHSLQTRQTALEMAFREKADHA

How the values were obtained:
[1] = target: HisSUMO-PAIR1 coiled-coil domain (residues 140–310) (Z. mays) (Z. mays); assay: SEC-MALS
[2] = target: HisSUMO-ASY2 coiled-coil domain (residues 55–275) (Sordaria macrospora) (Sordaria macrospora); assay: SEC-MALS
NMR = target: the molecule itself; assay: NMR
SEC-MALS = target: the molecule itself; assay: SEC-MALS
Mer2 = target: T1, Mer2; assay: EMSA
[3] = target: B1; assay: NMR

| Molecule | stoichiometry N (SEC-MALS) | also measured |
| --- | --- | --- |
| HisSUMO-PAIR1 coiled-coil domain (residues 140–310) (Z. mays) (domain or fragment) | – | stoichiometry N [1]: 4 |
| HisSUMO-ASY2 coiled-coil domain (residues 55–275) (Sordaria macrospora) (domain or fragment) | – | stoichiometry N [2]: 4 |
| B1 | – | binding result (NMR): binds |
| B2 | 4 | – |
| B3 | 2 | – |
| B4 | – | apparent K (half saturation) (Mer2): 10.6 ± 1.2 nM |
| B5 | 4 | – |
| B6 | – | binding result [3]: binds |
| B7 | 4 | – |
| B8 | 4 | – |
| B9 | 3 | – |
| B10 | 4 | – |
